Columns and labels:
[1] = target: T1, GFP-FoxM1B 1-688 protein (human, UniProt Q08050 1-703); test: Co-IP from transfected U2OS extracts
T1 construct: not shown: green fluorescent protein (EGFP) of the pEGFP-C2 expression plasmid (Clontech), N-terminal fusion partner
T1 sequence: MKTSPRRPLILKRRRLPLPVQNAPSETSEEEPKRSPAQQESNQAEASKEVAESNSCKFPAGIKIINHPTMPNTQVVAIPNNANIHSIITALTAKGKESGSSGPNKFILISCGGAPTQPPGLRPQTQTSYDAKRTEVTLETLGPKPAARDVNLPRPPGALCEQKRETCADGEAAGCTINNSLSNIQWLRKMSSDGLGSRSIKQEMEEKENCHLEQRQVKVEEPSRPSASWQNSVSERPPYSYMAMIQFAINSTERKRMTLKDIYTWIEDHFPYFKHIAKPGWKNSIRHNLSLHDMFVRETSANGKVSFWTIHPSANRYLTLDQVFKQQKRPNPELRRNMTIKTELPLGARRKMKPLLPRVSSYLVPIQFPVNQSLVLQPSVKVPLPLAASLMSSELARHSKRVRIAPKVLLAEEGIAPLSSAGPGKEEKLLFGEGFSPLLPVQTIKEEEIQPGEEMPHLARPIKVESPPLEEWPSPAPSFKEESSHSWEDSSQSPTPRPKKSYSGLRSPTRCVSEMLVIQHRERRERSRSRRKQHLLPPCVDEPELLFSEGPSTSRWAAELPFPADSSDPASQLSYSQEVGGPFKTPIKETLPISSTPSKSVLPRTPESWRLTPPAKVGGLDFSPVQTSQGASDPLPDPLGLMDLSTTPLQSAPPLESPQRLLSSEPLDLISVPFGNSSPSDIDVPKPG

[2] = target: T2, GFP-FoxM1B fusion protein, wild type (CMV GFP-FoxM1B; GFP-T7-FoxM1B WT; GFP-FoxM1B 1-748 full-length) (human, UniProt Q08050 1-763); test: Co-IP with HA antibody, Western blot with GFP antibody
T2 construct: Expressed in transfected U2OS cells; also called CMV-GFP-T7-FoxM1B; GFP-FoxM1B WT; not shown: green fluorescent protein (EGFP) of the pEGFP-C2 expression plasmid (Clontech), N-terminal fusion partner
T2 sequence: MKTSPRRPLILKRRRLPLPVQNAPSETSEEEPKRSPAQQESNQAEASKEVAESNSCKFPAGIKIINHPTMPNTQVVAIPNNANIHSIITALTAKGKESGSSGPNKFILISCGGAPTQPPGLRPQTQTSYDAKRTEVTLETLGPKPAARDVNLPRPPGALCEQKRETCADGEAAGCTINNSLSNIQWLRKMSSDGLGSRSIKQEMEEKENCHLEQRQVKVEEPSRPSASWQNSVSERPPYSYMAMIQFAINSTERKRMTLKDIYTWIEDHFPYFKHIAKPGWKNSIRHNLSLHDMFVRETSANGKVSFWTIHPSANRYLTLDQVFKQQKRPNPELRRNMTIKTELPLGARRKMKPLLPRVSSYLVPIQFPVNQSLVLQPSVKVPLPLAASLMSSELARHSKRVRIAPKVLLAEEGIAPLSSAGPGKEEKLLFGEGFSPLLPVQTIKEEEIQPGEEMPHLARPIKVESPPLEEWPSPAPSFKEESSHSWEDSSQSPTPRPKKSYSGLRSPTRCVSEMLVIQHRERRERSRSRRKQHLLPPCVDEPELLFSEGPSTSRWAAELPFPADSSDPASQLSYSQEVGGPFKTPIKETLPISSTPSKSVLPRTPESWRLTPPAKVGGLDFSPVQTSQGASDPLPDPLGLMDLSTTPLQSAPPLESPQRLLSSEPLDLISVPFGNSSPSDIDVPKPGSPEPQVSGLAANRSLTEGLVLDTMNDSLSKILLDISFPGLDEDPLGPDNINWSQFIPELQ

[3] = target: Cdk2 protein (human, UniProt P24941 1-298); test: Co-IP from transfected U2OS extracts with Cdk2 antibody, Western blot with T7 tag antibody
From the text: The immunoprecipitated proteins were subjected to Western blot analysis using a monoclonal antibody against the T7 epitope tagged antibody protein.

Binder | binding result [2] | further results
HA-p19^ARF WT protein (other, not shown: small tags and cut ends, residues 26-44 of it are the printed p19ARF 26-44 peptide; Expressed in transfected U2OS cells; also called WT p19; HA tagged p19) MGRRFLVTVRIQRAGRPLQERVFLVKFVRSRRPRTASCALAFVNMLLRLERILRRGPHRNPGPGDDDGQRSRSSSSAQLRCRFELRGPHYLLPPGDRRSAGRLPGHAGGAARVRGSAGCARCLGSPAARLGPRAGTSRHRAIFAFRWVLFVFRWVVFVYRWERRPDRRA |  | binding result [1]: no binding
HA-p19^ARF Δ26-37 deletion mutant (other, not shown: small tags and cut ends, Deletion of p19 residues 26-37; also called CMV p19^ARFΔ26-37) MGRRFLVTVRIQRAGRPLQERVFLVCALAFVNMLLRLERILRRGPHRNPGPGDDDGQRSRSSSSAQLRCRFELRGPHYLLPPGDRRSAGRLPGHAGGAARVRGSAGCARCLGSPAARLGPRAGTSRHRAIFAFRWVLFVFRWVVFVYRWERRPDRRA | no binding | 
T7-FoxM1B L641A mutant protein (other, not shown: small tags and cut ends, expressed in transfected U2OS cells; also called CMV T7-FoxM1B L641A; CMV FoxM1B L641A) MKTSPRRPLILKRRRLPLPVQNAPSETSEEEPKRSPAQQESNQAEASKEVAESNSCKFPAGIKIINHPTMPNTQVVAIPNNANIHSIITALTAKGKESGSSGPNKFILISCGGAPTQPPGLRPQTQTSYDAKRTEVTLETLGPKPAARDVNLPRPPGALCEQKRETCADGEAAGCTINNSLSNIQWLRKMSSDGLGSRSIKQEMEEKENCHLEQRQVKVEEPSRPSASWQNSVSERPPYSYMAMIQFAINSTERKRMTLKDIYTWIEDHFPYFKHIAKPGWKNSIRHNLSLHDMFVRETSANGKVSFWTIHPSANRYLTLDQVFKQQKRPNPELRRNMTIKTELPLGARRKMKPLLPRVSSYLVPIQFPVNQSLVLQPSVKVPLPLAASLMSSELARHSKRVRIAPKVLLAEEGIAPLSSAGPGKEEKLLFGEGFSPLLPVQTIKEEEIQPGEEMPHLARPIKVESPPLEEWPSPAPSFKEESSHSWEDSSQSPTPRPKKSYSGLRSPTRCVSEMLVIQHRERRERSRSRRKQHLLPPCVDEPELLFSEGPSTSRWAAELPFPADSSDPASQLSYSQEVGGPFKTPIKETLPISSTPSKSVLPRTPESWRLTPPAKVGGLDFSPVQTSQGASDPLPDPLGAMDLSTTPLQSAPPLESPQRLLSSEPLDLISVPFGNSSPSDIDVPKPGSPEPQVSGLAANRSLTEGLVLDTMNDSLSKILLDISFPGLDEDPLGPDNINWSQFIPELQ |  | binding result [3]: no binding
HA-p19^ARF Δ26-37+Δ1-14 deletion mutant (other, not shown: small tags and cut ends, Deletion of p19 residues 1-14 and 26-37) GRPLQERVFLVCALAFVNMLLRLERILRRGPHRNPGPGDDDGQRSRSSSSAQLRCRFELRGPHYLLPPGDRRSAGRLPGHAGGAARVRGSAGCARCLGSPAARLGPRAGTSRHRAIFAFRWVLFVFRWVVFVYRWERRPDRRA | no binding | 
